Source: US5766899

Legend:
[1] = biological target: CS receptor on primary mouse hepatocytes (mouse)
[2] = biological target: CS receptor on primary mouse hepatocytes (mouse); remark: listed apart in the source
[3] = substrate: CS receptor on primary mouse hepatocytes (mouse); remark: listed apart in the source

| Molecule | transfection efficiency of primary hepatocytes (X-gal staining) (% transfection efficiency) [1] | further results |
| --- | --- | --- |
| BSA/poly(L-lysine) conjugate (from UniProt P02769) | < 10 |  |
| DHFR-CSF1-His6/poly(L-lysine) conjugate (from UniProt P00375) |  | Blue cells (%) after transfection of primary hepatocytes with conjugate/pCMV-β-gal DNA complex (X-gal staining) [2]: < 1 % blue cells |
| poly(L-lysine) | < 5 |  |
| EWSPCSVTCGNGIQVRIKPGSAN [Peptide E35] |  | inhibition of β-galactosidase activity (ONPG) in CS27IVC-His6 conjugate-mediated gene transfer into primary hepatocytes (% inhibited at 0.125 µM) [3]: 50 |
